The source of these data is patent US8129557B2, “Phosphonic acid diester derivative and method for producing thereof” (priority 2005, dated 2012).

Substrate in the series: Cc1cc(=O)oc2cc(NC(=O)CC[C@H](N)C(=O)O)ccc12
Description: Hydrolytic assay of E. coli GGT (Michaelis constant of substrate). The class given is biochemical, Escherichia coli K-12. As to conditions: other: E. coli GGT, pH 5.5, 25° C. The method, then:
In the experiment, at first, Michaelis constants (Km) for 7-(γ-L-glutamylamino)-4-methylcoumarin as substrate were measured by a fluorescence method [Smith, G. D.; Ding, J. L.; Peters, T. J. Anal. Biochem. 100, 136-139 (1979)] for the hydrolytic activities of E-coli GGT and human GGT.
In the hydrolytic assay of E. coli GGT, 10 μL of a […] enzyme solution was added to a 100 mM succinic acid-sodium hydroxide buffer solution (pH 5.5) in a total volume of 1 mL containing 100 μL of 2 μM substrate aqueous solution. The product, 7-amino-4-methylcoumarin (AMC), released along with the enzyme reaction was traced continuously at 25° C. using a fluorospectrophotometer F-2000 manufactured by Hitachi Ltd. (excitation wavelength: 350 nm, emission wavelength: 440 nm). The AMC concentration was separately measured by forming a calibration curve showing the relation of the fluorescence intensity (F) and the concentration (C) using standard solutions and was calculated from the relational expression (1) of the fluorescence intensity alteration (ΔF) and concentration alteration (ΔC).
[Expression 1] ΔF/ΔC=0.11 nM^−1 (1)
The fluorescence intensity was proportional to the AMC concentration up to 2.0 μM. As a result, Km value for 7-(γ-L-glutamylamino)-4-methylcoumarin was 0.2 μM under this condition.

B1: E. coli GGT (Escherichia coli K-12) (protein)
chain 1: APPAPPVSYGVEEDVFHPVRAKQGMVASVDATATQVGVDILKEGGNAVDAAVAVGYALAVTHPQAGNLGGGGFMLIRSKNGNTTAIDFREMAPAKATRDMFLDDQGNPDSKKSLTSHLASGTPGTVAGFSLALDKYGTMPLNKVVQPAFKLARDGFIVNDALADDLKTYGSEVLPNHENSKAIFWKEGEPLKKGDTLVQANLAKSLEMIAENGPDEFYKGTIAEQIAQEMQKNGGLITKEDLAAYKAVERTPISGDYRGYQVYSMPPPSSGGIHIVQILNILENFDMKKYGFGSADAMQIMAEAEKYAYADRSEYLGDPDFVKVPWQALTNKAYAKSIADQIDINKAKPSSEIRPGKLAPYESNQ
chain 2: TTHYSVVDKDGNAVAVTYTLNTTFGTGIVAGESGILLNNQMDDFSAKPGVPNVYGLVGGDANAVGPNKRPLSSMSPTIVVKDGKTWLVTGSPGGSRIITTVLQMVVNSIDYGLNVAEATNAPRFHHQWLPDELRVEKGFSPDTLKLLEAKGQKVALKEAMGSTQSIMVGPDGELYGASDPRSVDDLTAGY
notes: was used as a purified enzyme of E-coli GGT; made in house
Turning to B1, the Km is 0.2 µM.
